Laboratory results reported in paper PMC11180174 (Nature Communications, 2024).

Columns and labels:
[1] = molecular target: T1, SARS-CoV-2 (Wuhan-Hu-1 strain) wild-type RBD, His-tagged (SARS-CoV-2 Wuhan-Hu-1 (MN908947.3), UniProt P0DTC2); test: BLI; conditions: both partners purified
T1 construct: source: HEK293F, transiently transfected, purified (Ni Sepharose); not shown: 8xHis, C-terminal, kept

[2] = molecular target: T2, SARS-CoV-2 (Wuhan-Hu-1 strain) wild-type spike RBD-His (SARS-CoV-2 Wuhan-Hu-1 (MN908947.3), UniProt P0DTC2); test: BLI; conditions: both partners purified
T2 construct: source: HEK293F, transfected, purified (Ni Sepharose); not shown: His8, C-terminal, kept

Row | Binder | Kd [1] [pM] | koff [1] [s⁻¹] | kon [1] [M⁻¹ s⁻¹] | Kd [2] [pM] | koff [2] [s⁻¹] | kon [2] [M⁻¹ s⁻¹]
1 | neutralizing antibody 7F3 (antibody, V domains shown) VH: EVQLVESGGGLVKPGRSLRLSCTASGFTFGDYAMSWFRQAPGKGLEWVGFIRSKAYGGTTEYAASVKGRFTISRDDSKSIAYLQMNSLKTEDTAVYYCTRDRYARYDILTGLSPAGADYFYYAMDVWGQGTTVTVSS VL: EIVLTQSPATLSLSPGERATLSCRASQSVSSYLAWYQQKPGQAPRLLIYDASNRATGIPARFSGSGSGTDFTLTISSLEPEDFAVYYCQQRSNWPQYTFGQGTKLEIK | < 1 | < 1e-07 | 192000 | – | – | –
2 | 7F3 neutralizing antibody (IgG) (antibody, V domains shown) VH: EVQLVESGGGLVKPGRSLRLSCTASGFTFGDYAMSWFRQAPGKGLEWVGFIRSKAYGGTTEYAASVKGRFTISRDDSKSIAYLQMNSLKTEDTAVYYCTRDRYARYDILTGLSPAGADYFYYAMDVWGQGTTVTVSS VL: EIVLTQSPATLSLSPGERATLSCRASQSVSSYLAWYQQKPGQAPRLLIYDASNRATGIPARFSGSGSGTDFTLTISSLEPEDFAVYYCQQRSNWPQYTFGQGTKLEIK | – | – | – | < 1 | < 1e-07 | 192000
3 | LY-CoV1404 (also known as bebtelovimab) (antibody, V domains shown, control antibody) VH: QITLKESGPTLVKPTQTLTLTCTFSGFSLSISGVGVGWLRQPPGKALEWLALIYWDDDKRYSPSLKSRLTISKDTSKNQVVLKMTNIDPVDTATYYCAHHSISTIFDHWGQGTLVTVSS VL: QSALTQPASVSGSPGQSITISCTATSSDVGDYNYVSWYQQHPGKAPKLMIFEVSDRPSGISNRFSGSKSGNTASLTISGLQAEDEADYYCSSYTTSSAVFGGGTKLTVL | < 1 | < 1e-07 | 79100 | – | – | –
4 | LY-CoV1404 (bebtelovimab) (antibody, V domains shown) VH: QITLKESGPTLVKPTQTLTLTCTFSGFSLSISGVGVGWLRQPPGKALEWLALIYWDDDKRYSPSLKSRLTISKDTSKNQVVLKMTNIDPVDTATYYCAHHSISTIFDHWGQGTLVTVSS VL: QSALTQPASVSGSPGQSITISCTATSSDVGDYNYVSWYQQHPGKAPKLMIFEVSDRPSGISNRFSGSKSGNTASLTISGLQAEDEADYYCSSYTTSSAVFGGGTKLTVL | – | – | – | < 1 | < 1e-07 | 79100
